{
  "source": "the RNAGym collection of RNA variant scans (doi:10.7554/elife.80360)",
  "parents": {"B1": {"name": "Hairpin Ribozyme (parent)", "chain": "GUCCUCUUUCACGUGCGCGUGAAAGAGAGAAGUGAACCAGAGAAACACACGUUGUGGUAUAUUACCUGGUA"}},
  "data": [
    {"variants_of": "B1", "experiment": "self-cleavage, relative activity (ratio to wild type); higher = more cleavage; co-transcriptional", "values": [
      {"variant": "G56U U70A", "self-cleavage": 0.145},
      {"variant": "U58C A59U", "self-cleavage": 0.192},
      {"variant": "G56U U58C", "self-cleavage": 0.0906},
      {"variant": "U60A G68A", "self-cleavage": 0.298},
      {"variant": "A61U U63A", "self-cleavage": 0.123},
      {"variant": "U55C U62C", "self-cleavage": 0.315},
      {"variant": "U55C U62A", "self-cleavage": 0.106},
      {"variant": "U63A G69A", "self-cleavage": 0.153},
      {"variant": "G56A C66A", "self-cleavage": 0.0948},
      {"variant": "U55G A64G", "self-cleavage": 0.266},
      {"variant": "G54U U63C", "self-cleavage": 0.214},
      {"variant": "G56A A71U", "self-cleavage": 0.142},
      {"variant": "U63A C65G", "self-cleavage": 0.173},
      {"variant": "U63G U67A", "self-cleavage": 0.159},
      {"variant": "A61G A64C", "self-cleavage": 0.109},
      {"variant": "G57C A61C", "self-cleavage": 0.236},
      {"variant": "U62C C65U", "self-cleavage": 0.162},
      {"variant": "U62C C65A", "self-cleavage": 0.212},
      {"variant": "A61G G68C", "self-cleavage": 0.195},
      {"variant": "G57U U58C", "self-cleavage": 0.278},
      {"variant": "G57U U58G", "self-cleavage": 0.0777},
      {"variant": "U60G U62G", "self-cleavage": 0.222},
      {"variant": "U60G U62C", "self-cleavage": 0.244},
      {"variant": "A59G C65A", "self-cleavage": 0.155},
      {"variant": "A59G C65G", "self-cleavage": 0.247},
      {"variant": "G57A U70C", "self-cleavage": 0.274},
      {"variant": "U63C A64C", "self-cleavage": 0.224},
      {"variant": "U63A A64G", "self-cleavage": 0.0955},
      {"variant": "U63A A71C", "self-cleavage": 0.287},
      {"variant": "U63G A64U", "self-cleavage": 0.157},
      {"variant": "U63G A64C", "self-cleavage": 0.191},
      {"variant": "U55C A71G", "self-cleavage": 0.388},
      {"variant": "G56U G69C", "self-cleavage": 0.124},
      {"variant": "G56U G69A", "self-cleavage": 0.114},
      {"variant": "G56U G69U", "self-cleavage": 0.207},
      {"variant": "A61C G68U", "self-cleavage": 0.278},
      {"variant": "A61C G68A", "self-cleavage": 0.116},
      {"variant": "A61G C66G", "self-cleavage": 0.329},
      {"variant": "A59C U67G", "self-cleavage": 0.24},
      {"variant": "U60C A61C", "self-cleavage": 0.264},
      {"variant": "U55G U62G", "self-cleavage": 0},
      {"variant": "U58A U60G", "self-cleavage": 0.646},
      {"variant": "U58A U60A", "self-cleavage": 0.509},
      {"variant": "U55A A71U", "self-cleavage": 0.18},
      {"variant": "G57A A64G", "self-cleavage": 0.131},
      {"variant": "G57A A64C", "self-cleavage": 0.118},
      {"variant": "U60C U70C", "self-cleavage": 1.28},
      {"variant": "U60C U70G", "self-cleavage": 1.03},
      {"variant": "U58G C66U", "self-cleavage": 0.403},
      {"variant": "U58G C66A", "self-cleavage": 0.281},
      {"variant": "U55C U67A", "self-cleavage": 0.177},
      {"variant": "U55C U67G", "self-cleavage": 0.113},
      {"variant": "U58A U63G", "self-cleavage": 0.194},
      {"variant": "U58A U63C", "self-cleavage": 0.307},
      {"variant": "G57A A59C", "self-cleavage": 0.142},
      {"variant": "G57A A59G", "self-cleavage": 0.171},
      {"variant": "U60A A61C", "self-cleavage": 0.133},
      {"variant": "U60A A61U", "self-cleavage": 0.17},
      {"variant": "U55A A61C", "self-cleavage": 0.104},
      {"variant": "U55C C65G", "self-cleavage": 0.194},
      {"variant": "G57U U67C", "self-cleavage": 0.116},
      {"variant": "G57U U67A", "self-cleavage": 0.166},
      {"variant": "U58C A61G", "self-cleavage": 0},
      {"variant": "U62A G68U", "self-cleavage": 0.28},
      {"variant": "U58A C65A", "self-cleavage": 0.503},
      {"variant": "U58A C65U", "self-cleavage": 0.203},
      {"variant": "U60C G69U", "self-cleavage": 0.0645},
      {"variant": "U63C C66A", "self-cleavage": 0.23},
      {"variant": "U60C U62C", "self-cleavage": 0.569},
      {"variant": "U60C U62A", "self-cleavage": 0.253},
      {"variant": "U55G A71U", "self-cleavage": 0.209},
      {"variant": "A59C A64G", "self-cleavage": 0.1},
      {"variant": "A59C A64C", "self-cleavage": 0.111},
      {"variant": "U55G G68U", "self-cleavage": 0.139},
      {"variant": "A59C A61U", "self-cleavage": 0.284},
      {"variant": "U55A U70A", "self-cleavage": 0.181},
      {"variant": "G56A G69A", "self-cleavage": 0.148},
      {"variant": "A59U U60A", "self-cleavage": 0.195},
      {"variant": "G56U A64G", "self-cleavage": 0.0832},
      {"variant": "A59G U62A", "self-cleavage": 0.144},
      {"variant": "G57A U60A", "self-cleavage": 0.152},
      {"variant": "U55G U67G", "self-cleavage": 0.233},
      {"variant": "U60G U63C", "self-cleavage": 0.171},
      {"variant": "U62G C66G", "self-cleavage": 0.0965},
      {"variant": "U55C A59G", "self-cleavage": 0.0716},
      {"variant": "U55C A59C", "self-cleavage": 0.0877},
      {"variant": "U60A A71G", "self-cleavage": 0.839},
      {"variant": "G57U U62A", "self-cleavage": 0.0927},
      {"variant": "G56U A71G", "self-cleavage": 0.127},
      {"variant": "G54U U60G", "self-cleavage": 0.29},
      {"variant": "G54U U60A", "self-cleavage": 0.252},
      {"variant": "U55A C65U", "self-cleavage": 0.21},
      {"variant": "G56A G68C", "self-cleavage": 0.0908},
      {"variant": "G56A G68U", "self-cleavage": 0.146},
      {"variant": "U58G A59G", "self-cleavage": 0.143},
      {"variant": "G56C U70G", "self-cleavage": 0.0624},
      {"variant": "A59C G68C", "self-cleavage": 0.227},
      {"variant": "U55G U63C", "self-cleavage": 0.0583},
      {"variant": "A59C U70A", "self-cleavage": 0.112},
      {"variant": "U58G U60A", "self-cleavage": 0.714},
      {"variant": "U58G U60G", "self-cleavage": 0.731},
      {"variant": "A61C U70C", "self-cleavage": 0.169},
      {"variant": "G54U U58G", "self-cleavage": 0.401},
      {"variant": "U58C G69A", "self-cleavage": 0.421},
      {"variant": "U58C G69C", "self-cleavage": 0.259},
      {"variant": "G56C C65U", "self-cleavage": 0.16},
      {"variant": "G56C C65G", "self-cleavage": 0.0604},
      {"variant": "U58C U63C", "self-cleavage": 0.178},
      {"variant": "G57U U63A", "self-cleavage": 0.146},
      {"variant": "U58A A71U", "self-cleavage": 0.391},
      {"variant": "U58A A71C", "self-cleavage": 1.19},
      {"variant": "U63C U70G", "self-cleavage": 0.248},
      {"variant": "U55C G56A", "self-cleavage": 0.0854},
      {"variant": "U55C G56C", "self-cleavage": 0.114},
      {"variant": "A61G C65A", "self-cleavage": 0.159},
      {"variant": "A61G C65G", "self-cleavage": 0.303},
      {"variant": "G57C U60G", "self-cleavage": 0.178},
      {"variant": "G57C U60A", "self-cleavage": 0.14},
      {"variant": "U60A C65U", "self-cleavage": 0.301},
      {"variant": "U60A C65G", "self-cleavage": 0.254},
      {"variant": "U60C", "self-cleavage": 1.16},
      {"variant": "U60A", "self-cleavage": 0.849},
      {"variant": "U60G", "self-cleavage": 0.615},
      {"variant": "G56U C66G", "self-cleavage": 0.22},
      {"variant": "G56U C66U", "self-cleavage": 0.0775},
      {"variant": "U55A G57U", "self-cleavage": 0.146},
      {"variant": "A59U U63C", "self-cleavage": 0.12},
      {"variant": "U55C U58A", "self-cleavage": 0.257},
      {"variant": "G57U A59C", "self-cleavage": 0.188},
      {"variant": "G57U A59G", "self-cleavage": 0.231},
      {"variant": "U58C C65U", "self-cleavage": 0.55},
      {"variant": "U62G A71C", "self-cleavage": 0.281},
      {"variant": "U62G A71G", "self-cleavage": 0.143},
      {"variant": "U63G A71U", "self-cleavage": 0.117},
      {"variant": "U58G U70C", "self-cleavage": 0.84},
      {"variant": "U55C G69U", "self-cleavage": 0.159},
      {"variant": "U55C G69A", "self-cleavage": 0.166},
      {"variant": "U55C G69C", "self-cleavage": 0.183},
      {"variant": "U55A U62A", "self-cleavage": 0.104},
      {"variant": "U55A U62C", "self-cleavage": 0.229},
      {"variant": "U58A A59G", "self-cleavage": 0.122},
      {"variant": "A59U G68U", "self-cleavage": 0.188},
      {"variant": "A59U G68A", "self-cleavage": 0.231},
      {"variant": "G57U A71C", "self-cleavage": 0.738},
      {"variant": "U60C U63G", "self-cleavage": 0.136},
      {"variant": "G57C C66G", "self-cleavage": 0.113},
      {"variant": "U63G G69C", "self-cleavage": 0.138},
      {"variant": "U55A U60A", "self-cleavage": 0.245},
      {"variant": "U55A U60G", "self-cleavage": 0.33},
      {"variant": "G57C", "self-cleavage": 0.166},
      {"variant": "G57U", "self-cleavage": 0.273},
      {"variant": "G57A", "self-cleavage": 0.183},
      {"variant": "U63C G69C", "self-cleavage": 0.28},
      {"variant": "U63C G69U", "self-cleavage": 0.183},
      {"variant": "U63G U70C", "self-cleavage": 0.161},
      {"variant": "U63G U70G", "self-cleavage": 0.182},
      {"variant": "U55G", "self-cleavage": 0.297},
      {"variant": "U55A", "self-cleavage": 0.258},
      {"variant": "U55C", "self-cleavage": 0.25},
      {"variant": "A59G A64U", "self-cleavage": 0.181},
      {"variant": "G57U U60A", "self-cleavage": 0.114},
      {"variant": "G57U U60C", "self-cleavage": 0.246},
      {"variant": "U58A U62A", "self-cleavage": 0.0926},
      {"variant": "U55G U60G", "self-cleavage": 0.185},
      {"variant": "U55G U60A", "self-cleavage": 0.0917},
      {"variant": "G57U U70G", "self-cleavage": 0.225},
      {"variant": "U62G G68C", "self-cleavage": 0.186}
    ]}
  ]
}
